Molecular target: bromodomain of CREB (cyclic-AMP response element binding) binding protein (UniProt Q92793-1)
Assay: AlphaScreen or HTRF
Settings: both partners purified

Sequence of bromodomain of CREB (cyclic-AMP response element binding) binding protein (Q92793 1081-1197): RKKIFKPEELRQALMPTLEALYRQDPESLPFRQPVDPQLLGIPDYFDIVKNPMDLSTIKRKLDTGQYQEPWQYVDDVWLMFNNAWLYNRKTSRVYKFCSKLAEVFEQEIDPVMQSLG

Q: Does ALREIRRYQKSTELLIRKLK (K(Ac) at peptide position 10 (H3K56); C-terminal K(Biotin)) [H3K56(Ac) peptide] bind?
A: binds
